# Laboratory results reported in patent US20110091994A1, “Methods for Screening Compounds for Treating and/or Preventing an Hepatitis C Virus Infection” (priority 2008, published 2011).
# Like-named read-outs stand apart in the source and are kept apart here.
# B1: USHBP1 (protein, UniProt Q8N6Y0 1-703, looked up)
# Harmonin-binding protein …: MSARATRPRSRRGRHAPPGELDPVAESSEEVEAASGSSKPSFAPPPVSSGLEQLGPMEEVSGQGLGSRTDKKMDGGSGRELASAPEVPHKPAVEAHQAPEAALQYKETVPPGNGAPDVFQTLQHTLSSLEAAAAAWRHQPPSHSGPMEFEGTSEGGAGSLGKQEGAGSCQREAARLAERNAWLRLALSSREDELVRTQASLEAIRAEKETLQKEVQELQDSLLRLEPCPHLSHNQAGGSGSGSSSSEADREPWETQDSFSLAHPLLRRLRSHSSTQILGSLPNQPLSPEMHIMEAQMEQLRGSIEKLKCFNRLLSAVLQGYKGRCEGLSMQLGQREAEATALHLALQYSEHCEEAYRVLLALREADSGAGDEAPMSDLQAAEKEAWRLLAQEEAAMDAGAQQNPQPSPEGSSVDKPTPQEVAFQLRSYVQRLQERRSLMKILSEPGPTLAPMPTVPRAEAMVQAILGTQAGPALPRLEKTQIQQDLVAAREALADLMLRLQLVRREKRGLELREAALRALGPAHVLLLEQLRWERAELQAGGANSSGGHSSGGGSSGDEEEWYQGLPAVPGGTSGIDGGQVGRAWDPEKLAQELAASLTRTLDLQEQLQSLRRELEQVAQKGRARRSQSAELNRDLCKAHSALVLAFRGAHRKQEEQRRKLEQQMALMEAQQAEEVAVLEATARALGKPRPPLPPPQLGDTFL
# B2: ZBTB1 (protein, UniProt Q9Y2K1 1-713, looked up)
# Zinc finger and BTB …: MAKPSHSSYVLQQLNNQREWGFLCDCCIAIDDIYFQAHKAVLAACSSYFRMFFMNHQHSTAQLNLSNMKISAECFDLILQFMYLGKIMTAPSSFEQFKVAMNYLQLYNVPDCLEDIQDADCSSSKCSSSASSKQNSKMIFGVRMYEDTVARNGNEANRWCAEPSSTVNTPHNREADEESLQLGNFPEPLFDVCKKSSVSKLSTPKERVSRRFGRSFTCDSCGFGFSCEKLLDEHVLTCTNRHLYQNTRSYHRIVDIRDGKDSNIKAEFGEKDSSKTFSAQTDKYRGDTSQAADDSASTTGSRKSSTVESEIASEEKSRAAERKRIIIKMEPEDIPTDELKDFNIIKVTDKDCNESTDNDELEDEPEEPFYRYYVEEDVSIKKSGRKTLKPRMSVSADERGGLENMRPPNNSSPVQEDAENASCELCGLTITEEDLSSHYLAKHIENICACGKCGQILVKGRQLQEHAQRCGEPQDLTMNGLGNTEEKMDLEENPDEQSEIRDMFVEMLDDFRDNHYQINSIQKKQLFKHSACPFRCPNCGQRFETENLVVEHMSSCLDQDMFKSAIMEENERDHRRKHFCNLCGKGFYQRCHLREHYTVHTKEKQFVCQTCGKQFLRERQLRLHNDMHKGMARYVCSICDQGNFRKHDHVRHMISHLSAGETICQVCFQIFPNNEQLEQHMDVHLYTCGICGAKFNLRKDMRSHYNAKHLKRT
# B3: XAB2 (protein, UniProt Q9HCS7 1-855, looked up)
# Pre-mRNA-splicing factor SYF1: MVVMARLSRPERPDLVFEEEDLPYEEEIMRNQFSVKCWLRYIEFKQGAPKPRLNQLYERALKLLPCSYKLWYRYLKARRAQVKHRCVTDPAYEDVNNCHERAFVFMHKMPRLWLDYCQFLMDQGRVTHTRRTFDRALRALPITQHSRIWPLYLRFLRSHPLPETAVRGYRRFLKLSPESAEEYIEYLKSSDRLDEAAQRLATVVNDERFVSKAGKSNYQLWHELCDLISQNPDKVQSLNVDAIIRGGLTRFTDQLGKLWCSLADYYIRSGHFEKARDVYEEAIRTVMTVRDFTQVFDSYAQFEESMIAAKMETASELGREEEDDVDLELRLARFEQLISRRPLLLNSVLLRQNPHHVHEWHKRVALHQGRPREIINTYTEAVQTVDPFKATGKPHTLWVAFAKFYEDNGQLDDARVILEKATKVNFKQVDDLASVWCQCGELELRHENYDEALRLLRKATALPARRAEYFDGSEPVQNRVYKSLKVWSMLADLEESLGTFQSTKAVYDRILDLRIATPQIVINYAMFLEEHKYFEESFKAYERGISLFKWPNVSDIWSTYLTKFIARYGGRKLERARDLFEQALDGCPPKYAKTLYLLYAQLEEEWGLARHAMAVYERATRAVEPAQQYDMFNIYIKRAAEIYGVTHTRGIYQKAIEVLSDEHAREMCLRFADMECKLGEIDRARAIYSFCSQICDPRTTGAFWQTWKDFEVRHGNEDTIKEMLRIRRSVQATYNTQVNFMASQMLKVSGSATGTVSDLAPGQSGMDDMKLLEQRAEQLAAEAERDQPLRAQSKILFVRSDASREELAELAQQVNPEEIQLGEDEDEDEMDLEPNEVRLEQQSVPAAVFGSLKED
# B4: SLC31A2 (protein, UniProt O15432 1-143, looked up)
# Protein SLC31A2: MAMHFIFSDTAVLLFDFWSVHSPAGMALSVLVLLLLAVLYEGIKVGKAKLLNQVLVNLPTSISQQTIAETDGDSAGSDSFPVGRTHHRWYLCHFGQSLIHVIQVVIGYFIMLAVMSYNTWIFLGVVLGSAVGYYLAYPLLSTA
# B5: XRN2 (protein, UniProt Q9H0D6 1-950, looked up)
# 5'-3' exoribonuclease 2: MGVPAFFRWLSRKYPSIIVNCVEEKPKECNGVKIPVDASKPNPNDVEFDNLYLDMNGIIHPCTHPEDKPAPKNEDEMMVAIFEYIDRLFSIVRPRRLLYMAIDGVAPRAKMNQQRSRRFRASKEGMEAAVEKQRVREEILAKGGFLPPEEIKERFDSNCITPGTEFMDNLAKCLRYYIADRLNNDPGWKNLTVILSDASAPGEGEHKIMDYIRRQRAQPNHDPNTHHCLCGADADLIMLGLATHEPNFTIIREEFKPNKPKPCGLCNQFGHEVKDCEGLPREKKGKHDELADSLPCAEGEFIFLRLNVLREYLERELTMASLPFTFDVERSIDDWVFMCFFVGNDFLPHLPSLEIRENAIDRLVNIYKNVVHKTGGYLTESGYVNLQRVQMIMLAVGEVEDSIFKKRKDDEDSFRRRQKEKRKRMKRDQPAFTPSGILTPHALGSRNSPGSQVASNPRQAAYEMRMQNNSSPSISPNTSFTSDGSPSPLGGIKRKAEDSDSEPEPEDNVRLWEAGWKQRYYKNKFDVDAADEKFRRKVVQSYVEGLCWVLRYYYQGCASWKWYYPFHYAPFASDFEGIADMPSDFEKGTKPFKPLEQLMGVFPAASGNFLPPSWRKLMSDPDSSIIDFYPEDFAIDLNGKKYAWQGVALLPFVDERRLRAALEEVYPDLTPEETRRNSLGGDVLFVGKHHPLHDFILELYQTGSTEPVEVPPELCHGIQGKFSLDEEAILPDQIVCSPVPMLRDLTQNTVVSINFKDPQFAEDYIFKAVMLPGARKPAAVLKPSDWEKSSNGRQWKPQLGFNRDRRPVHLDQAAFRTLGHVMPRGSGTGIYSNAAPPPVTYQGNLYRPLLRGQAQIPKLMSNMRPQDSWRGPPPLFQQQRFDRGVGAEPLLPWNRMLQTQNAAFQPNQYQMLAGPGGYPPRRDDRGGRQGYPREGRKYPLPPPSGRYNWN
# B6: ZCCHC7 (protein, UniProt Q8N3Z6 1-543, looked up)
# Zinc finger CCHC …: MMFGGYETIEAYEDDLYRDESSSELSVDSEVEFQLYSQIHYAQDLDDVIREEEHEEKNSGNSESSSSKPNQKKLIVLSDSEVIQLSDGSEVITLSDEDSIYRCKGKNVRVQAQENAHGLSSSLQSNELVDKKCKSDIEKPKSEERSGVIREVMIIEVSSSEEEESTISEGDNVESWMLLGCEVDDKDDDILLNLVGCENSVTEGEDGINWSISDKDIEAQIANNRTPGRWTQRYYSANKNIICRNCDKRGHLSKNCPLPRKVRRCFLCSRRGHLLYSCPAPLCEYCPVPKMLDHSCLFRHSWDKQCDRCHMLGHYTDACTEIWRQYHLTTKPGPPKKPKTPSRPSALAYCYHCAQKGHYGHECPEREVYDPSPVSPFICYYDDKYEIQEREKRLKQKIKVLKKNGVIPEPSKLPYIKAANENPHHDIRKGRASWKSNRWPQENKETQKEMKNKNRNWEKHRKADRHREVDEDFPRGPKTYSSPGSFKTQKPSKPFHRSSHYHTSREDKSPKEGKRGKQKKKERCWEDDDNDNLFLIKQRKKKS
# Key:
# [1] = target: T1, HCV ORFs (Gal4-DB fusions) (Hepatitis C virus genotype 1b, UniProt Q9WMX2); type: binding, HCV genotype 1b, isolate con1; conditions: human protein as prey
# T1 construct: expressed in transfected cells; host or cells: Saccharomyces cerevisiae MAV203 (IMAP1) / AH109 (IMAP2)
# [2] = test system: HCV ORFs (Gal4-DB fusions); type: binding, HCV genotype 1b, isolate con1; conditions: human protein listed by gene symbol; the value names the HCV protein it interacts with
# HCV proteins = target: T2, HCV proteins (Hepatitis C virus genotype 1b, UniProt Q9WMX2); experiment: Validation by Y2H pairwise matrices; type: binding;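 note: yeast two-hybrid pairwise tests of interactions first found in Y2H screens of HCV bait proteins against human cDNA libraries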
# T2 construct: expressed in transfected cells
# [3] = validation of interaction with HCV protein NS3
# 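Throughout, for IMAP Y2H IMAP1 (number of IST): yeast two-hybrid screens using HCV genotype 1b proteins fused to Gal4-DB as baits against prey cDNA libraries from human spleen and foetal brain, IMAP1 via transformation and IMAP2 via mating.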
# 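Throughout, for IMAP Y2H IMAP2 (number of IST): yeast two-hybrid screens using HCV genotype 1b proteins fused to Gal4-DB as baits against prey cDNA libraries from human spleen and foetal brain, IMAP1 via transformation and IMAP2 via mating.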
# 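Throughout, for Interaction with viral protein: yeast two-hybrid screens using HCV genotype 1b proteins fused to Gal4-DB as baits against prey cDNA libraries from human spleen and foetal brain, IMAP1 via transformation and IMAP2 via mating.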
Molecule,IMAP Y2H IMAP1 (number of IST) ([1]; HCV protein NS3 as bait),Interaction with viral protein [2],Y2H matrices (HCV proteins; [3]),IMAP Y2H IMAP1 (number of IST) ([1]; HCV protein CORE as bait),Y2H matrices (HCV proteins; validation of interaction with HCV protein CORE),IMAP Y2H IMAP2 (number of IST) ([1]; HCV protein NS3 as bait)
B1,1,NS3,+,–,–,–
B2,1,NS3,+,–,–,–
B3,2,NS3,+,–,–,–
B4,–,CORE,–,1,+,–
B5,1,NS3,+,–,–,–
B6,2,NS3,+,–,–,1
